Data taken from patent US20120328589A1.

Molecular target: mannose receptor (on NR8383 rat alveolar macrophages) (rat)
Test: cell-based or functional assay

Row | uptake by rat alveolar macrophages in the absence of mannan (GCD activity in cell lysate, pNP-G assay) [ng/mL lysate] | uptake by rat alveolar macrophages, reduction by mannan (GCD activity in cell lysate, pNP-G assay) [%] | Substance
1 | 333 | 90 | Plant recombinant human glucocerebrosidase (prh-GCD) (from UniProt P04062 40-536) (enzyme)
2 | 200 | 85 | prh-GCD cross-linked with bis-NHS-PEG5 at a 50:1 bis-NHS-PEG5:GCD molar ratio (from UniProt P04062 40-536) (enzyme)
